Columns and labels:
[1] = molecular target: BCMA expressed on K562 Very High-BCMA cells (UniProt Q02223); assay: cell-based or functional assay
[2] = molecular target: BCMA protein (UniProt Q02223); assay: cell-based or functional assay

- CD107a+ cells (%), degranulation after 18 hours [1]: 3.82%
- CD107a+ cells (%), degranulation after 18 hours [2]: 22.2%
B1: anti-BCMA CAR (co-stimulatory domain not specified for the experiment) (protein, part only; not given: CAR hinge, transmembrane, signaling domains, part only)
chain, part: DIVLTQSPPSLAMSLGKRATISCRASESVTILGSHLIHWYQQKPGQPPTLLIQLASNVQTGVPARFSGSGSRTDFTLTIDPVEEDDVAVYYCLQSRTIPRTFGGGTKLEIKGSTSGSGKPGSGEGSTKGQIQLVQSGPELKKPGETVKISCKASGYTFTDYSINWVKRAPGKGLKWMGWINTETREPAYAYDFRGRFAFSLETSASTAYLQINNLKYEDTATYFCALDYSYAMDYWGQGTSVTVSS
